# B1: C10orf62 (parent)
# chain: RALEEVEMKLQKNFLTQRENTIAG
# Variants of: B1
# Test: protein stability index of a GFP-peptide fusion (GPS, HEK-293T) (PSI 1-6); higher = more stable
# Conditions: c terminus: a fixed tail appended
# 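Further: lentivirally expressed fusions sorted by FACS into six bins by GFP to DsRed ratio, PSI derived from sequencing read proportions per bin multiplied by bin number.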
row,Variant,protein stability index
1,RALEEVEMKLQKNFLTQREKTIAG [N20K],3.75
2,RALEEVEMKLQKNFLTQREQTIAG [N20Q],3.81
3,RALEEVEMKLQKNFLTQREMTIAG [N20M],3.18
4,RALEEVEMKLQKNFLTQRESTIAG [N20S],3.7
5,RALEEVEMKLQKNFLTQREYTIAG [N20Y],2.64
6,RALEEVEMKLQKNFLTQREETIAG [N20E],4.17
7,RALEEVEMKLQKNFLVQRENTIAG [T16V],3.16
8,RALEEVEMKLQKNFLCQRENTIAG [T16C],3.24
9,RALEEVEMKLQKNFLRQRENTIAG [T16R],2.81
10,RALEEVEMKLQKNFLMQRENTIAG [T16M],3.23
11,RALEEVEMKLQKNFLWQRENTIAG [T16W],2.97
12,RALEEVEMKLQKNFLLQRENTIAG [T16L],2.79
13,RALEEVEMKLQKNFLSQRENTIAG [T16S],3.64
14,RALEGVEMKLQKNFLTQRENTIAG [E5G],3.6
15,RALEWVEMKLQKNFLTQRENTIAG [E5W],1.85
16,RALECVEMKLQKNFLTQRENTIAG [E5C],2.21
17,RALEEVEMKLQKNFLTQRENTAAG [I22A],4.15
18,RALEEVEMKLQKNFLTQRENTHAG [I22H],3.8
19,RALEEVEMKLQKNFLTQRENTTAG [I22T],3.89
20,RALEEVEMKLQKNFLTQRENTPAG [I22P],3.38
21,RALEEVEMKLQKNFLTQRENTMAG [I22M],3.54
22,RALEEVEMKLQKNFLTQRENTEAG [I22E],4.75
23,RALEEVEMKLQKNFLTQRENTGAG [I22G],4.34
24,RALEEVHMKLQKNFLTQRENTIAG [E7H],2.17

row,Variant,protein stability index
1,RALEEVFMKLQKNFLTQRENTIAG [E7F],2.17
2,RALEEVYMKLQKNFLTQRENTIAG [E7Y],2.38
3,RALEEVAMKLQKNFLTQRENTIAG [E7A],2.02
4,RALEEVMMKLQKNFLTQRENTIAG [E7M],1.33
5,RALEEVNMKLQKNFLTQRENTIAG [E7N],3.61
6,RALEEVQMKLQKNFLTQRENTIAG [E7Q],3.35
7,RALEEVKMKLQKNFLTQRENTIAG [E7K],1.96
8,RALEEVCMKLQKNFLTQRENTIAG [E7C],1.8
9,RALEEVDMKLQKNFLTQRENTIAG [E7D],3.69
10,RALEEVRMKLQKNFLTQRENTIAG [E7R],2.29
11,RALEEVEMKLQKNFLTERENTIAG [Q17E],3.96
12,RALEEVEMKLQKNFLTKRENTIAG [Q17K],3.5
13,RALEEVEMKLQKNFLTIRENTIAG [Q17I],2.89
14,RALEEVEMKLQKNFLTFRENTIAG [Q17F],2.13
15,RALEEVEMKLQKNFLTYRENTIAG [Q17Y],2.48
16,RALEEVEMKLQKNFLTLRENTIAG [Q17L],3.03
17,RALEEVEMKLQKNFLTRRENTIAG [Q17R],2.74
18,RALEEVEMKLQKNFLTQRENTIAD [G24D],4.37
19,RALEEVEMKLQKNFLTQRENTIAS [G24S],3.43
20,RALEEVEMKLQKNFLTQRENTIAC [G24C],3.23
21,RALEEVEMKLQKNFLTQRENTIAE [G24E],4.04
22,RALEEVEMKLQKNFLTQRENTIAA [G24A],3.4
23,RALEEVEMKLQKNFLTQRENTIAN [G24N],3.45
24,RALEEVEMKLQKNFLTQRENTIAT [G24T],3.76

row,Variant,protein stability index
1,RALEEVEMKFQKNFLTQRENTIAG [L10F],3.37
2,RALEEVEMKHQKNFLTQRENTIAG [L10H],4
3,RALEEVEMKSQKNFLTQRENTIAG [L10S],4.66
4,RALEEVEMKIQKNFLTQRENTIAG [L10I],3.5
5,RALEEVEMKRQKNFLTQRENTIAG [L10R],3.4
6,RALEEVEMKAQKNFLTQRENTIAG [L10A],4.13
7,RALEEVEMKTQKNFLTQRENTIAG [L10T],4.4
8,RALEEVEMKVQKNFLTQRENTIAG [L10V],4.04
9,RALEEVEMKCQKNFLTQRENTIAG [L10C],3.58
10,RALEEVEMKQQKNFLTQRENTIAG [L10Q],3.22
11,RALEEVEMKDQKNFLTQRENTIAG [L10D],4.56
12,RALEEVEMKLWKNFLTQRENTIAG [Q11W],1.98
13,RALEEVEMKLKKNFLTQRENTIAG [Q11K],3.31
14,RALEEVEMKLAKNFLTQRENTIAG [Q11A],3.31
15,RALEEVEYKLQKNFLTQRENTIAG [M8Y],3.6
16,RALEEVEPKLQKNFLTQRENTIAG [M8P],3.94
17,RALEEVEDKLQKNFLTQRENTIAG [M8D],4.6
18,RALEEVECKLQKNFLTQRENTIAG [M8C],3.58
19,RALEEVEAKLQKNFLTQRENTIAG [M8A],4.09
20,RALEEVELKLQKNFLTQRENTIAG [M8L],3.3
21,RALEEVEWKLQKNFLTQRENTIAG [M8W],2.81
22,RALEEVEGKLQKNFLTQRENTIAG [M8G],4.64
23,RALEEVEFKLQKNFLTQRENTIAG [M8F],3.65
24,RALEEVESKLQKNFLTQRENTIAG [M8S],4.08

row,Variant,protein stability index
1,RALEEVETKLQKNFLTQRENTIAG [M8T],4.23
2,RALEEVEMKLQKNFLTQRLNTIAG [E19L],2.04
3,RALEEVEMKLQKNFLTQRRNTIAG [E19R],3.12
4,RALEEVEMKLQKNFLTQRNNTIAG [E19N],3.2
5,RALEEVEMKLQKNFLTQRMNTIAG [E19M],2.65
6,RALEEVEMKLQKNFLTQRPNTIAG [E19P],2.85
7,RALEEVEMKLQKNFLTQRGNTIAG [E19G],3.31
8,RALEEVEMKLQKNFLTQRTNTIAG [E19T],2.92
9,RALEEVEMKLQKGFLTQRENTIAG [N13G],3.15
10,RALEEVEMKLQKIFLTQRENTIAG [N13I],1.76
11,RALEEVEMKLQKFFLTQRENTIAG [N13F],2.23
12,RALEEVEMKLQKSFLTQRENTIAG [N13S],3.52
13,RALEEVEMKLQKTFLTQRENTIAG [N13T],3.31
14,RALEEVEMKLQKYFLTQRENTIAG [N13Y],2.62
15,RALEEVEMKLQKEFLTQRENTIAG [N13E],3.92
16,RALEEVEMKLQKLFLTQRENTIAG [N13L],2.86
17,RAGEEVEMKLQKNFLTQRENTIAG [L3G],4.31
18,RAWEEVEMKLQKNFLTQRENTIAG [L3W],2.95
19,RAIEEVEMKLQKNFLTQRENTIAG [L3I],4.17
20,RAQEEVEMKLQKNFLTQRENTIAG [L3Q],4.47
21,RACEEVEMKLQKNFLTQRENTIAG [L3C],4.02
22,RASEEVEMKLQKNFLTQRENTIAG [L3S],4.05

# Source: the supplement of paper PMC10567573
